Results on 3 substances are retold here after patent publication US20090297479A1.

Assay [1] concerns the target syndecan-4 (SD-4), human (human) (UniProt P31431). As to the kind of experiment: cell-based or functional assay.
Assay [2] deals with PD-1 on human peripheral blood CD4+ T cells (human) (UniProt Q15116). The assay can be described thus: cell-based or functional assay.

Where only a bound is given, the exact number is not on record here.

Sequence of PD-1 on human peripheral blood CD4+ T cells (human) (Q15116 25-288): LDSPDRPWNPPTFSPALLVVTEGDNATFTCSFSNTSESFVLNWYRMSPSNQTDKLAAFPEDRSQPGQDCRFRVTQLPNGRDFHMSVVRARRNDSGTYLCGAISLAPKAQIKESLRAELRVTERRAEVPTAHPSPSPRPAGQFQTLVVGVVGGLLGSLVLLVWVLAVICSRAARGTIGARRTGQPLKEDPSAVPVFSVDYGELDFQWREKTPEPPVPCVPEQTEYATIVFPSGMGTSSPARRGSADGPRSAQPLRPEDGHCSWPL
Sequence of syndecan-4 (SD-4), human (human) (P31431 19-198): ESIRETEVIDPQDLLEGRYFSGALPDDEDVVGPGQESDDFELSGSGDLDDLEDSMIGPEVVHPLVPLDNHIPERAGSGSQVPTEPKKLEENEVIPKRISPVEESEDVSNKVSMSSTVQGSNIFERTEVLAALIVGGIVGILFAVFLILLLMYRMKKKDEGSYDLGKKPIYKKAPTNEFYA
Sequence of saporin-conjugated DC-HIL (human DC-HIL-Fc, biotinylated and conjugated with streptavidin-saporin) (Q14956 23-498): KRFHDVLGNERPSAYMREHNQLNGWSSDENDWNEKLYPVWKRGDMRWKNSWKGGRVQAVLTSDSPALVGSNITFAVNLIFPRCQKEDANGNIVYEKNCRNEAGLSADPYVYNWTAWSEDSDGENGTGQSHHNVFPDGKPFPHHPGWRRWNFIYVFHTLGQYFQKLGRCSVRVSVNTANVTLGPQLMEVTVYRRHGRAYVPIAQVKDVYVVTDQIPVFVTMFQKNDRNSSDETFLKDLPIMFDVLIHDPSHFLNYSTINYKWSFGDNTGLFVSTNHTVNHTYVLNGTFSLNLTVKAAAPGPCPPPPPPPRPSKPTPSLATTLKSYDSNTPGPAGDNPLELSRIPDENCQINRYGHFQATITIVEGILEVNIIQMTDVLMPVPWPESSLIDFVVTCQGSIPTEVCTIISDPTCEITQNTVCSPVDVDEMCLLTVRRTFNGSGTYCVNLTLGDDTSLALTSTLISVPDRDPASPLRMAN

“human DC-HIL-Fc (extracellular domain of human DC-HIL fused to the Fc portion of mouse IgG2a) (from UniProt Q14956 23-498) (Fc fusion)” gave an IL-2 production by HUT-78 cells triggered by anti-CD3 Ab in assay [1] of less than 70%.

In assay [2], anti-PD-1 Ab (MIH4) (antibody) yielded an inhibition of proliferation induced by 0.3 µg/ml anti-CD3 Ab, Ab at 40 µg/ml of 50 % inhibition; a reduction of T cell proliferation at 0.1 µg/ml anti-CD3 Ab of 50%; a reduction of T cell proliferation at the highest dose (3 µg/ml) of anti-CD3 Ab of 10%.

With “saporin-conjugated DC-HIL (human DC-HIL-Fc, biotinylated and conjugated with streptavidin-saporin) (from UniProt Q14956 23-498)”, the proliferation (3H-thymidine) of HUT-78 cells in assay [1] was 60 % reduction.
